Test results reported in publication PMC8891188 (Clinical Pharmacokinetics, 2021).
Read-outs that look alike come from different tables or passages of the source.

Experiments:
[1] = cited from earlier work
[2] = 10 U SC; Howey et al.; cited from earlier work
[3] = simulation of the previous study by Rüppel et al.; cited from earlier work
[4] = Serum insulin pharmacokinetics during euglycemic clamp; format: in vivo, human
[5] = system: persons with type 1 diabetes mellitus; test: Euglycemic clamp pharmacodynamics; format: in vivo, human
[6] = across doses, TI inhaled, LIS SC
[7] = mean (SD) of n = 5 PK profiles selected for comparable AUClast, SD

## RHI: regular human insulin, given intravenously or subcutaneously in cited studies
[1]; IV, after the start of administration
  Time to maximum concentration (Cmax) of insulin: 5 min
[1]; SC, after administration
  Time to maximum concentration (Cmax) of insulin: 121 min
[2]
  MRT: 235 min
[3]
  ED50, Emax model of predicted GIR AUC vs D: 48 U

## [Lys(B28), Pro(B29)]-human insulin [LIS]
[4]; 10-U dose of LIS SC, regression equations in the ESM
  Insulin exposure estimated from the linear regression equations: 8152 min µU/mL
[4]; [6]
  Geometric mean dose-normalized insulin exposure (AUClast/D) across doses: 883 min·µU/mL/U
[4]; insulin exposure of 8152 min µU/mL, regression equations
  Estimated MRT at the same insulin exposure: 118 min
[4]; [7]
  AUClast of profiles at the high end of the common exposure range: 61,371 (9082) min∙µU/mL
  AUClast of profiles at the low end of the common exposure range: 6538 (65) min∙µU/mL
[5]; [6]
  Geometric mean dose-normalized effect, GIR AUC/D: 66.2 mg/kg/U
[5]; common to TI and LIS, estimate (standard error), SEM
  γ, model of GIRmax vs Cmax (common value): 1.37 (0.19)
[5]; n = 5 profiles per treatment, AUClast about 6537 min∙µU/mL
  Total effect (GIR AUC) at comparable low insulin exposure: 899 mg/kg
[5]; power-law fit, log-transformed variables
  Exponent of dose dependence of tGIRend (tGIRend ~ D^x): ~0.282
[2]
  MRT: 101 min
